Measured values published in paper PMC9039348.
pKd: −log10 of the molar value.

Molecular target: microtubules (MTs) polymerised from porcine brain tubulin, taxol-stabilised (porcine) (UniProt P02550)
Assay: co-sedimentation; GST-rMap7D2 proteins incubated with 0.4 mg/ml taxol-stabilised MTs in polymerization buffer (80 mM PIPES/NaOH pH 6.8, 1 mM MgCl2, 1 mM EGTA, 1 mM GTP) with 15 μM taxol, 20 min at 37°C; centrifuged at 100,000g for 30 min at 37°C through a 50% sucrose cushion; supernatant and pellet by SDS-PAGE, CBB staining, densitometer; Scatchard analysis

pKd: 6.22
stoichiometry N (scale: tubulin α/β heterodimers per GST-rMap7D2 molecule): 10
Substance: GST-rMap7D2 (full length) (from UniProt D4A4L4 1-763) (natural protein)
